Holding throughout (test): cell-based or functional assay
The target in experiment [1] is HIV pseudovirus Ce1176_A3 (envelope glycoprotein) (HIV).
Experiment [2] concerns the target HIV pseudovirus SC05.8C11.2344 (envelope glycoprotein) (HIV).
The target of experiment [3] is HIV pseudovirus CNE52 (envelope glycoprotein) (HIV).
In experiment [4] the target is HIV pseudovirus RHPA4259.7 (envelope glycoprotein) (HIV).
For experiment [5], the target named is HIV pseudovirus Du172.17 (envelope glycoprotein) (HIV).
The target in experiment [6] is HIV pseudovirus 0260.v5.c36 (envelope glycoprotein) (HIV).

Numbering of substitutions follows the chain as printed.

B1: MS-40 (antibody, V domains shown)
VH: QMQLQESGPGLVKPSETLSLTCSVSGASISDSYWSWIRRSPGKGLEWIGYVHKSGDTNYSPSLKSRVNLSLDTSKNQVSLSLVAATAADSGVYYCARTLHGRRIYGIVAFNEWFTYFYMDVWGNGTQVTVSS
VL: SDISVAPGQTARISCGEKSLGSRAVQWYQQRAGQAPSLIIYNNQDRPSGIPERFSGSPDSPFGTTATLTITSVEAGDEADYYCHIWDSRVPTKWVFGGGTTLTVLG
In the case of B1, the neutralization IC50 stood at 0.009 mg/L in experiment [1]; 0.014 mg/L in experiment [2]; 2.22 mg/L in experiment [3]; 0.006 mg/L in experiment [4]; 0.046 mg/L in experiment [5]; 0.043 mg/L in experiment [6]. For the same molecule, the neutralization IC80 is 0.033 mg/L in experiment [1]; 0.05 mg/L in experiment [2]; 22.2 mg/L in experiment [3]; 0.025 mg/L in experiment [4]; 0.36 mg/L in experiment [5]; 0.149 mg/L in experiment [6].

B2: MS-48 (antibody, V domains shown)
VH: B1 VH with V92K
VL: B1 VL with Q9E
For the molecule B2, the neutralization IC50 came out at 0.009 mg/L in experiment [1]; 0.016 mg/L in experiment [2]; 2.81 mg/L in experiment [3]; 0.013 mg/L in experiment [4]; 0.02 mg/L in experiment [5]; 0.021 mg/L in experiment [6]. Further, the neutralization IC80 in experiment [1] was 0.036 mg/L; in experiment [2], 0.063 mg/L; in experiment [3] it was 21.9 mg/L; in experiment [4], 0.034 mg/L; in experiment [5], 0.165 mg/L; in experiment [6], 0.108 mg/L.
